Laboratory results from patent publication US20210062165A1 (TRUSTEES OF PRINCETON UNIVERSITY, published 2021).

B1: FUS^N-FusionRed-Cry2 fusion protein (other)
chain: MASASNDYTQQATQSYGAYPTQPGQGYSQQSSQPYGQQSYSGYSQSTDTSGYGQSSYSSYGQSQNTGYGTQSTPQGYGSTGGYGSSQSSQSSYGQQSSYPGYGQQPAPSSTSGSYGSSSQSSSYGQPQSGSYSQQPSYGGQQQSYGQQQSYNPPQGYGQQNQYNSSSGGGGGGGGGGNYGQDQSSMSSGGGSGGGYGNQDQSGGGGSGGYGQQDRGGGGMVSELIKENMPMKLYMEGTVNNHHFKCTSEGEGKPYEGTQTMRIKVVEGGPLPFAFDILATSFMYGSRTFIKHPPGIPDFFKQSFPEGFTWERVTTYEDGGVLTATQDTSLQDGCLIYNVKVRGVNFPANGPVMQKKTLGWEASTETMYPADGGLEGACDMALKLVGGGHLICNLETTYRSKKPATNLKMPGVYNVDHRLERIKEADDETYVEQHEVAVARYSTGGAGDGGKAATRMKMDKKTIVWFRRDLRIEDNPALAAAAHEGSVFPVFIWCPEEEGQFYPGRASRWWMKQSLAHLSQSLKALGSDLTLIKTHNTISAILDCIRVTGATKVVFNHLYDPVSLVRDHTVKEKLVERGISVQSYNGDLLYEPWEIYCEKGKPFTSFNSYWKKCLDMSIESVMLPPPWRLMPITAAAEAIWACSIEELGLENEAEKPSNALLTRAWSPGWSNADKLLNEFIEKQLIDYAKNSKKVVGNSTSLLSPYLHFGEISVRHVFQCARMKQIIWARDKNSEGEESADLFLRGIGLREYSRYICFNFPFTHEQSLLSHLRFFPWDADVDKFKAWRQGRTGYPLVDAGMRELWATGWMHNRIRVIVSSFAVKFLLLPWKWGMKYFWDTLLDADLECDILGWQYISGSIPDGHELDRLDNPALQGAKYDPEGEYIRQWLPELARLPTEWIHHPWDAPLTVLKASGVELGTNYAKPIVDIDTARELLAKAISRTREAQIMIGAAARDPPVATGSGSGSG
notes: Expressed inside S. cerevisiae cells (strains YEZ53, yNS47); The listing entry is DNA, not protein; also called optoDroplets; optoDroplet
B2: sFUS-FusionRed-PixD fusion protein (other)
chain: MASNDYTQQATQSYGAYPTQPGQGYSQQSSQPYGQQSYSGYSQSTDTSGYGQSSYSSYGQSQNTGYGTQSTPQGYGSTGGYGSSQSSQSSYGQQGGGMVSELIKENMPMKLYMEGTVNNHHFKCTSEGEGKPYEGTQTMRIKVVEGGPLPFAFDILATSFMYGSRTFIKHPPGIPDFFKQSFPEGFTWERVTTYEDGGVLTATQDTSLQDGCLIYNVKVRGVNFPANGPVMQKKTLGWEASTETMYPADGGLEGACDMALKLVGGGHLICNLETTYRSKKPATNLKMPGVYNVDHRLERIKEADDETYVEQHEVAVARYSTGGAGDGGKAATRMSLYRLIYSSQGIPNLQPQDLKDILESSQRNNPANGITGLLCYSKPAFLQVLEGECEQVNETYHRIVQDERHHSPQIIECMPIRRRNFEVWSMQAITVNDLSTEQVKTLVLKYSGFTTLRPSAMDPEQCLNFLLDIAKIYELSDNFFLDL
notes: Expressed inside S. cerevisiae cells (strain YEZ555). sFUS is the first 93 amino acids of the FUS^N domain; The listing entry is DNA, not protein; also called sFUS-FR-PixD; EZ-L767

Assays:
[1] = target: the molecule itself; experiment: microscopy of self-clustering in yeast (YEZ53), light against dark
Method: Yeast strains were cultured overnight in a 24 well plate covered with foil. SC media was used to avoid the high auto-fluorescence of YPD. The following day, cultures were diluted 1:20 and allowed to grow for 2 hours such that the cells were in exponential phase. Wells of the microscopy plate were coated using 1 mg/mL Concanavalin A (Sigma) dissolved in 20 mM sodium acetate. After washing wells with ddH2O, yeast cultures were transferred and spun down at 1000 rpm for 3 min. All imaging was carried out using a 60X oil immersion objective (NA 1.4) on a Nikon A1 laser scanning confocal microscope. The laser was used at two different wavelengths: 488 nm for activation of Cry2 and 551 nm for visualization of FusionRed. […] Laser settings were 40% intensity for 488 nm and 30% intensity for 561 nm. Exposure times for both wavelengths was 200 ms.

[2] = target: T1, FUS^N-Citrine-PixE fusion protein; experiment: microscopy of co-clustering in yeast strain YEZ555, dark against blue light
T1 construct: Expressed inside S. cerevisiae cells (strains YEZ231, YEZ232, YEZ555); The listing entry is DNA, not protein; also called FUS^NPixE; EZ-L498

Binder	binding result [1]	binding result [2]
B1	binds	–
B2	–	binds
